Numbered stars: 1 amine (or outer) side, 2 acyl side, 3 side chain; on linkers, the order of the positions; unused ones are H or OH. Bridge positions count the residues as written; N and C are the ends. Side chains are listed from the residue outwards. Ends that are not written are not given here. * marks the point of attachment. C20 diacid = O=C(O)CCCCCCCCCCCCCCCCCCC(=O)*; γGlu = O=C(O)[C@H](CCC(=O)[*:2])N[*:1]; AEEA = NCCOCCOCC(=O)O
T1: human calcitonin receptor (human, UniProt P30988 25-474)
T1 construct: whole, on cells; Assayed as cell membranes of BHK tk'ts 13 cells stably transfected with the human calcitonin receptor (Assay VII); also called hCTR; hCT
T1 sequence (looked up): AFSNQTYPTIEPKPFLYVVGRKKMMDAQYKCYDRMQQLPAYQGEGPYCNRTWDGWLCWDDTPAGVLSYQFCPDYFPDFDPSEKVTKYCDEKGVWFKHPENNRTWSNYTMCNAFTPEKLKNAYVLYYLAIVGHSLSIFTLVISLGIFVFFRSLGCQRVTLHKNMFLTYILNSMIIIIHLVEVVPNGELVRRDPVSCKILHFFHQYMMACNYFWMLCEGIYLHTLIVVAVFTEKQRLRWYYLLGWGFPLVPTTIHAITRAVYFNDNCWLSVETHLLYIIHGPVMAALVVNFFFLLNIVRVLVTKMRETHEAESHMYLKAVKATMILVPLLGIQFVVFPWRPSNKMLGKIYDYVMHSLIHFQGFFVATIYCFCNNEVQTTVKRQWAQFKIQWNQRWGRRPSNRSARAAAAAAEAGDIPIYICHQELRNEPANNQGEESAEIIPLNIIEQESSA

B1: N^ε1-[2-[2-[2-[[(4S)-4-carboxy-4-(19-carboxynonadecanoylamino)butanoyl]amino]ethoxy]ethoxy]acetyl]-[Arg17,Pro21,Pro27,His34]-h-amylin (peptide)
peptide: K([AEEA-γGlu-C20 diacid])CNTATCATQRLANFLRHSSPNFGAIPSSTNVGHNTY-NH2
modifications: disulfide 2-7; N-terminus assumed
SMILES: CC[C@H](C)[C@H](NC(=O)[C@H](C)NC(=O)CNC(=O)[C@H](Cc1ccccc1)NC(=O)[C@H](CC(N)=O)NC(=O)[C@@H]1CCCN1C(=O)[C@H](CO)NC(=O)[C@H](CO)NC(=O)[C@H](Cc1c[nH]cn1)NC(=O)[C@H](CCCNC(=N)N)NC(=O)[C@H](CC(C)C)NC(=O)[C@H](Cc1ccccc1)NC(=O)[C@H](CC(N)=O)NC(=O)[C@H](C)NC(=O)[C@H](CC(C)C)NC(=O)[C@H](CCCNC(=N)N)NC(=O)[C@H](CCC(N)=O)NC(=O)[C@@H](NC(=O)[C@H](C)NC(=O)[C@@H]1CSSC[C@H](NC(=O)[C@@H](N)CCCCNC(=O)COCCOCCNC(=O)CC[C@H](NC(=O)CCCCCCCCCCCCCCCCCCC(=O)O)C(=O)O)C(=O)N[C@@H](CC(N)=O)C(=O)N[C@@H]([C@@H](C)O)C(=O)N[C@@H](C)C(=O)N[C@@H]([C@@H](C)O)C(=O)N1)[C@@H](C)O)C(=O)N1CCC[C@H]1C(=O)N[C@@H](CO)C(=O)N[C@@H](CO)C(=O)N[C@H](C(=O)N[C@@H](CC(N)=O)C(=O)N[C@H](C(=O)NCC(=O)N[C@@H](Cc1c[nH]cn1)C(=O)N[C@@H](CC(N)=O)C(=O)N[C@H](C(=O)N[C@@H](Cc1ccc(O)cc1)C(N)=O)[C@@H](C)O)C(C)C)[C@@H](C)O
notes: also called compound 76
B2: N^ε1-[2-[2-[2-[[(4S)-4-carboxy-4-(19-carboxynonadecanoylamino)butanoyl]amino]ethoxy]ethoxy]acetyl]-[Arg17,Pro21,Pro27,Pro31,His35]-h-amylin (peptide)
peptide: K([AEEA-γGlu-C20 diacid])CNTATCATQRLANFLRHSSPNFGAIPSSTPVGSHTY-NH2
modifications: disulfide 2-7; N-terminus assumed
SMILES: CC[C@H](C)[C@H](NC(=O)[C@H](C)NC(=O)CNC(=O)[C@H](Cc1ccccc1)NC(=O)[C@H](CC(N)=O)NC(=O)[C@@H]1CCCN1C(=O)[C@H](CO)NC(=O)[C@H](CO)NC(=O)[C@H](Cc1c[nH]cn1)NC(=O)[C@H](CCCNC(=N)N)NC(=O)[C@H](CC(C)C)NC(=O)[C@H](Cc1ccccc1)NC(=O)[C@H](CC(N)=O)NC(=O)[C@H](C)NC(=O)[C@H](CC(C)C)NC(=O)[C@H](CCCNC(=N)N)NC(=O)[C@H](CCC(N)=O)NC(=O)[C@@H](NC(=O)[C@H](C)NC(=O)[C@@H]1CSSC[C@H](NC(=O)[C@@H](N)CCCCNC(=O)COCCOCCNC(=O)CC[C@H](NC(=O)CCCCCCCCCCCCCCCCCCC(=O)O)C(=O)O)C(=O)N[C@@H](CC(N)=O)C(=O)N[C@@H]([C@@H](C)O)C(=O)N[C@@H](C)C(=O)N[C@@H]([C@@H](C)O)C(=O)N1)[C@@H](C)O)C(=O)N1CCC[C@H]1C(=O)N[C@@H](CO)C(=O)N[C@@H](CO)C(=O)N[C@H](C(=O)N1CCC[C@H]1C(=O)N[C@H](C(=O)NCC(=O)N[C@@H](CO)C(=O)N[C@@H](Cc1c[nH]cn1)C(=O)N[C@H](C(=O)N[C@@H](Cc1ccc(O)cc1)C(N)=O)[C@@H](C)O)C(C)C)[C@@H](C)O
notes: also called compound 57
B3: N^ε1-[2-[2-[2-[[(4S)-4-carboxy-4-(19-carboxynonadecanoylamino)butanoyl]amino]ethoxy]ethoxy]acetyl]-[Arg17,Pro21,Pro27,Pro28,Pro34]-h-amylin (peptide)
peptide: K([AEEA-γGlu-C20 diacid])CNTATCATQRLANFLRHSSPNFGAIPPSTNVGPNTY-NH2
modifications: disulfide 2-7; N-terminus assumed
SMILES: CC[C@H](C)[C@H](NC(=O)[C@H](C)NC(=O)CNC(=O)[C@H](Cc1ccccc1)NC(=O)[C@H](CC(N)=O)NC(=O)[C@@H]1CCCN1C(=O)[C@H](CO)NC(=O)[C@H](CO)NC(=O)[C@H](Cc1c[nH]cn1)NC(=O)[C@H](CCCNC(=N)N)NC(=O)[C@H](CC(C)C)NC(=O)[C@H](Cc1ccccc1)NC(=O)[C@H](CC(N)=O)NC(=O)[C@H](C)NC(=O)[C@H](CC(C)C)NC(=O)[C@H](CCCNC(=N)N)NC(=O)[C@H](CCC(N)=O)NC(=O)[C@@H](NC(=O)[C@H](C)NC(=O)[C@@H]1CSSC[C@H](NC(=O)[C@@H](N)CCCCNC(=O)COCCOCCNC(=O)CC[C@H](NC(=O)CCCCCCCCCCCCCCCCCCC(=O)O)C(=O)O)C(=O)N[C@@H](CC(N)=O)C(=O)N[C@@H]([C@@H](C)O)C(=O)N[C@@H](C)C(=O)N[C@@H]([C@@H](C)O)C(=O)N1)[C@@H](C)O)C(=O)N1CCC[C@H]1C(=O)N1CCC[C@H]1C(=O)N[C@@H](CO)C(=O)N[C@H](C(=O)N[C@@H](CC(N)=O)C(=O)N[C@H](C(=O)NCC(=O)N1CCC[C@H]1C(=O)N[C@@H](CC(N)=O)C(=O)N[C@H](C(=O)N[C@@H](Cc1ccc(O)cc1)C(N)=O)[C@@H](C)O)C(C)C)[C@@H](C)O
notes: also called compound 55
B4: N^ε1-[2-[2-[2-[[(4S)-4-carboxy-4-(19-carboxynonadecanoylamino)butanoyl]amino]ethoxy]ethoxy]acetyl]-[Arg17,Pro21,Pro27,Pro29,Pro31]-h-amylin (peptide)
peptide: K([AEEA-γGlu-C20 diacid])CNTATCATQRLANFLRHSSPNFGAIPSPTPVGSNTY-NH2
modifications: disulfide 2-7; N-terminus assumed
SMILES: CC[C@H](C)[C@H](NC(=O)[C@H](C)NC(=O)CNC(=O)[C@H](Cc1ccccc1)NC(=O)[C@H](CC(N)=O)NC(=O)[C@@H]1CCCN1C(=O)[C@H](CO)NC(=O)[C@H](CO)NC(=O)[C@H](Cc1c[nH]cn1)NC(=O)[C@H](CCCNC(=N)N)NC(=O)[C@H](CC(C)C)NC(=O)[C@H](Cc1ccccc1)NC(=O)[C@H](CC(N)=O)NC(=O)[C@H](C)NC(=O)[C@H](CC(C)C)NC(=O)[C@H](CCCNC(=N)N)NC(=O)[C@H](CCC(N)=O)NC(=O)[C@@H](NC(=O)[C@H](C)NC(=O)[C@@H]1CSSC[C@H](NC(=O)[C@@H](N)CCCCNC(=O)COCCOCCNC(=O)CC[C@H](NC(=O)CCCCCCCCCCCCCCCCCCC(=O)O)C(=O)O)C(=O)N[C@@H](CC(N)=O)C(=O)N[C@@H]([C@@H](C)O)C(=O)N[C@@H](C)C(=O)N[C@@H]([C@@H](C)O)C(=O)N1)[C@@H](C)O)C(=O)N1CCC[C@H]1C(=O)N[C@@H](CO)C(=O)N1CCC[C@H]1C(=O)N[C@H](C(=O)N1CCC[C@H]1C(=O)N[C@H](C(=O)NCC(=O)N[C@@H](CO)C(=O)N[C@@H](CC(N)=O)C(=O)N[C@H](C(=O)N[C@@H](Cc1ccc(O)cc1)C(N)=O)[C@@H](C)O)C(C)C)[C@@H](C)O
notes: also called compound 54
B5: N^ε1-[2-[2-[2-[[(4S)-4-carboxy-4-(19-carboxynonadecanoylamino)butanoyl]amino]ethoxy]ethoxy]acetyl]-[Arg17,Pro21,Pro27,Pro28,Pro31]-h-amylin (peptide)
peptide: K([AEEA-γGlu-C20 diacid])CNTATCATQRLANFLRHSSPNFGAIPPSTPVGSNTY-NH2
modifications: disulfide 2-7
notes: also called compound 53
B6: N^ε1-[2-[2-[2-[[(4S)-4-carboxy-4-(19-carboxynonadecanoylamino)butanoyl]amino]ethoxy]ethoxy]acetyl]-[Arg17,Pro21,Pro27,Pro29,Pro34]-h-amylin (peptide)
peptide: K([AEEA-γGlu-C20 diacid])CNTATCATQRLANFLRHSSPNFGAIPSPTNVGPNTY-NH2
modifications: disulfide 2-7; N-terminus assumed
SMILES: CC[C@H](C)[C@H](NC(=O)[C@H](C)NC(=O)CNC(=O)[C@H](Cc1ccccc1)NC(=O)[C@H](CC(N)=O)NC(=O)[C@@H]1CCCN1C(=O)[C@H](CO)NC(=O)[C@H](CO)NC(=O)[C@H](Cc1c[nH]cn1)NC(=O)[C@H](CCCNC(=N)N)NC(=O)[C@H](CC(C)C)NC(=O)[C@H](Cc1ccccc1)NC(=O)[C@H](CC(N)=O)NC(=O)[C@H](C)NC(=O)[C@H](CC(C)C)NC(=O)[C@H](CCCNC(=N)N)NC(=O)[C@H](CCC(N)=O)NC(=O)[C@@H](NC(=O)[C@H](C)NC(=O)[C@@H]1CSSC[C@H](NC(=O)[C@@H](N)CCCCNC(=O)COCCOCCNC(=O)CC[C@H](NC(=O)CCCCCCCCCCCCCCCCCCC(=O)O)C(=O)O)C(=O)N[C@@H](CC(N)=O)C(=O)N[C@@H]([C@@H](C)O)C(=O)N[C@@H](C)C(=O)N[C@@H]([C@@H](C)O)C(=O)N1)[C@@H](C)O)C(=O)N1CCC[C@H]1C(=O)N[C@@H](CO)C(=O)N1CCC[C@H]1C(=O)N[C@H](C(=O)N[C@@H](CC(N)=O)C(=O)N[C@H](C(=O)NCC(=O)N1CCC[C@H]1C(=O)N[C@@H](CC(N)=O)C(=O)N[C@H](C(=O)N[C@@H](Cc1ccc(O)cc1)C(N)=O)[C@@H](C)O)C(C)C)[C@@H](C)O
notes: also called compound 56

Target: T1, human calcitonin receptor
Assay: IC50 at hCTR divided by IC50 at hAmylin-R (SPA competition assays V and VII)
Summary of the method: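 Competition binding by SPA uses membrane preparations (35 ng/μL final) in pH 7.4 Hepes buffer with 1 mM CaCl2 and 5 mM MgCl₂. Incubation lasts 120 min at 25° C, and IC₅₀ comes from one-site fitting.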

Ratio hCT/hAmylin binding | Binder
80 | B1
133 | B2
51.8 | B3
146 | B4
104 | B5
42.6 | B6

Target: T1, human calcitonin receptor
Assay: SPA competition vs 125I-calcitonin, membranes of BHK cells with human calcitonin receptor (Assay VII)
Summary of the method: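 BHK hCTR membranes 35 ng/μL + SPA beads 0.05 mg/well; buffer 50 mM Hepes pH 7.4, 1 mM CaCl2, 5 mM MgCl₂, 0.1% OA, 0.02% Tween20. 120 min, 25° C., shaking. Scintillation count; IC50 by one-site binding competition.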

IC50 [nM] | Binder
17.2 | B1
15.3 | B2
2.17 | B3
4.38 | B4
5.38 | B5
2.09 | B6

Source: patent US20140087995A1 (published 2014)
